The text below walks through data of patent US20260097113A1 (Pfizer, published 2026).

Assay [1] deals with RSV A + RSV B bivalent composition (RSV subtype A; RSV subtype B). Nature of the assay: AM14 Fab titration by SEC; Target cycle; 8 M 2-8°C.
Assay [2] has the same target. The assay can be described thus: AM14 Fab titration by SEC; Target cycle; 1 M 2-8°C (second value). (In general: In gel filtration, larger molecules generally elute earlier.)
The target is the same in assay [3]. Nature of the assay: AM14 Fab titration by SEC; Low-Fast cycle; T0 (second value).
For assay [4] the target is unchanged. The assay can be described thus: AM14 Fab titration by SEC; Low-Fast cycle; 3 M 40°C.
Assay [5] has the same target. Nature of the assay: AM14 Fab titration by SEC; High-Slow 2 cycle; 8 M 25°C.
Assay [6] shares this target. The assay can be described thus: AM14 Fab titration by SEC; Target cycle; 8 M 25°C.
The target is the same in assay [7]. Nature of the assay: AM14 Fab titration by SEC; Target cycle; 3 M 40°C.
Assay [8] shares this target. The assay can be described thus: AM14 Fab titration by SEC; High-Slow 2 cycle; T0.
The target in assay [9] is T1, RSV F protein of subtype A comprising a polypeptide of SEQ ID NO: 1 and a polypeptide of SEQ ID NO: 2 (RSV subtype A, UniProt P11209 137-513; P03420 26-109).
T1 construct: Stabilized prefusion F trimer made of three F2-F1 heterodimers; Produced recombinantly in CHO cells; also called RSV A; RSVA
T1 chain 1: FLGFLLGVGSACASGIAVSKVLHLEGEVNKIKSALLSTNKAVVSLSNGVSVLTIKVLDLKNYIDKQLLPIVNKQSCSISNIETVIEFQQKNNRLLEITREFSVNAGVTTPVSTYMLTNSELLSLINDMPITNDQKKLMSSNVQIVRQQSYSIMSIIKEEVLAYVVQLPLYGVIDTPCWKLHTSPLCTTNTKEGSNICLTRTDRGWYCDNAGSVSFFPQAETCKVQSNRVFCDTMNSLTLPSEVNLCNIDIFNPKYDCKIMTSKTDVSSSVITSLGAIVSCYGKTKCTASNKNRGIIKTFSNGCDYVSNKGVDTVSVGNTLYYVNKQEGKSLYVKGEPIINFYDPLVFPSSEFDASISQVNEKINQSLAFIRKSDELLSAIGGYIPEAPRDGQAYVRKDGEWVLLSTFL
T1 chain 2: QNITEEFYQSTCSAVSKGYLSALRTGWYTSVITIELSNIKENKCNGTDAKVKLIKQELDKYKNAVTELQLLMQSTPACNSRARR
Nature of the assay: AM14 ELISA; F15 (pH 6, 0 mM NaCl, 9% sucrose); 1 wk 5°C.

Assay [10] addresses T1, RSV F protein of subtype A comprising a …. The assay can be described thus: AM14 ELISA; F13 (pH 7, 100 mM NaCl, 4.5% sucrose); 1 wk 5°C. (ELISA stands for enzyme-linked immunosorbent assay.)
Assay [11] deals with T2, RSV F protein comprising a polypeptide of SEQ ID NO: 3 and a polypeptide of SEQ ID NO: 4 (RSV subtype B, UniProt O36634 137-513; O36634 26-109).
T2 construct: also called RSV B; RSVB
T2 chain 1: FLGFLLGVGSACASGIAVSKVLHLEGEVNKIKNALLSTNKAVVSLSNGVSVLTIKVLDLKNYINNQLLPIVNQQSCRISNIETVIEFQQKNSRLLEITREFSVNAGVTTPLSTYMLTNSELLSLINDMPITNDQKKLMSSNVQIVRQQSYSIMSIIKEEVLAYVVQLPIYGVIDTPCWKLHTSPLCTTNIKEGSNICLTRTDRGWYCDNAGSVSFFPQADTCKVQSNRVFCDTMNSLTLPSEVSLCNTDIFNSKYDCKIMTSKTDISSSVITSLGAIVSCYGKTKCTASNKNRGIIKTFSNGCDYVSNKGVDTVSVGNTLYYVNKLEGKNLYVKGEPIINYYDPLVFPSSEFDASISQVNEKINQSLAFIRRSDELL
T2 chain 2: T1 chain 2 with K17R, L20F, N42T, A49T, S74N, S80N
Nature of the assay: AM14 prefusion assay relative to standard; RSV B 480 µg/mL, 2% sucrose + 4% mannitol; post-lyo T0.

The target in assay [12] is T1, RSV F protein of subtype A comprising a …. The assay can be described thus: AM14 ELISA; F14 (pH 7, 50 mM NaCl, 4.5% sucrose); T0.
Assay [13] has the same target. Nature of the assay: AM14 ELISA; F4 (pH 6, 50 mM NaCl, 4.5% sucrose); 2 wk 25°C.
For assay [14] the target is unchanged. Nature of the assay: AM14 ELISA; F13 (pH 7, 100 mM NaCl, 4.5% sucrose); 2 wk 25°C.
Assay [15] shares this target. The assay can be described thus: AM14 ELISA; F14 (pH 7, 50 mM NaCl, 4.5% sucrose); 1 wk 5°C.
Assay [16] shares this target. The assay can be described thus: AM14 ELISA; F1 (pH 8, 100 mM NaCl, 0% sucrose); 1 wk 25°C.

Numbering of substitutions follows the chain as printed.

For the molecule AM14 Fab, the Prefusion Content (%) was 73% in [1]; 69% in [2]; 82% in assay [3]; 70% in assay [4]; 71% in assay [5]; 75% in assay [6]. In addition, the Prefusion Content (%) in assay [7] was found to be 72%; in [8], 61%.

B1: AM14 (trimeric prefusion specific antibody of the AM14 ELISA) (antibody, V domains shown)
VH: EVQLVESGGGVVQPGRSLRLSCAASGFSFSHYAMHWVRQAPGKGLEWVAVISYDGENTYYADSVKGRFSISRDNSKNTVSLQMNSLRPEDTALYYCARDRIVDDYYYYGMDVWGQGATVTVSS
VL: DIQMTQSPSSLSASVGDRVTITCQASQDIKKYLNWYHQKPGKVPELLMHDASNLETGVPSRFSGRGSGTDFTLTISSLQPEDIGTYYCQQYDNLPPLTFGGGTKVEIKR
notes: Antibody as used in the AM14 ELISA, detected with an HRP-labeled secondary antibody
Take B1: the “AM14 prefusion content (%), relative to standard” value in assay [9] is 86%; in [10], 76%; in [11] it was 82%; in assay [12], 102%; in assay [13], 86%; in assay [14] it was 37%. Further, the entries for the “AM14 prefusion content (%), relative to standard” value in assay [15] and in assay [16] were 85% and 112%, respectively.
